For this assay, the target named is TIM3-Fc (Homo sapiens (Human)) (UniProt Q8TDQ0). Kind of assay: phage ELISA, target-Fc against non-specific control (IgG1-Fc). In general terms: An ELISA detects its analyte on a solid surface through an enzyme-linked reagent.

B1: DBDpp of SEQ ID NO: 45 (designed binder)
chain: MGSWVVFKVDLATIKYILEALGGSEAELAEFEGEIAGFEYSLQFYKGKGNPEVEALRKEAAAIRDELQAYRHN
As to B1, the ELISA ratio (target to background) was found to be 5.79.

The values are drawn from patent publication US10647775B2.
